{
  "source": "patent US6599718B1",
  "about": "“Growth hormone secretagogue related receptors and nucleic acids” (priority 1998, dated 2003)",
  "key": {"[1]": {"biological_target": "human growth hormone secretagogue related receptor (GHSR-R) (human) (UniProt Q9HB89)", "experiment": "cell-based or functional assay"}, "[2]": {"system": "Male rats (Charles River Sprague Dawley)", "experiment": "Overnight food intake after ICV (lateral ventricle) injection in rats", "assay_type": "in vivo, rat", "details": "10 μg ICV, relative to aCSF vehicle, P<0.01, n=6", "procedure": "Animals and Diet: Male rats (Charles River Sprague Dawley) weighing 250-350 g were maintained in a temperature and humidity controlled facility with a 12 hour light/dark cycle (4:00 AM lights on). Rats were fed standard rodent ground chow (Purina#7012). Fresh diet was provided daily. Both food and water were supplied ad libitum throughout both the pre- and post-surgery periods.\nICV cannulation: Rats under ketamine/xylazine anesthesia, were stereotaxically implanted in the lateral ventricle with a 26G guide cannula. The guide cannula (Plastics One Roanoke,Va.) was secured with three set screws and dental cement. A dummy internal cannula was placed into the guide cannula to maintain cannula patency. Rats were individually housed in Nalgene metabolism cages and allowed to recover a minimum of seven days before injection with test compounds.\nAcclimation: Beginning the day after surgery, each rat was acclimated to the handling and injection procedure, as well as, the feeding regimen. […] Food intake was measured two hours later and the following morning. […]\nConfirmation of cannula placement: Once the rats were fully recovered from surgery, guide cannula placement was confirmed by evaluating the food intake induced by the injection of 5 μg of hNPY (Peninsula Laboratories, Belmont, Calif.) after a one hour satiation period. Two hour post-injection food intake was recorded for each rat. […]"}, "GHSR-R": {"biological_target": "T1, GHSR-R (Homo sapiens, UniProt Q9HB89)", "T1 construct": "expressed in transfected cells", "T1 sequence (Q9HB89 24-426 limits assumed)": "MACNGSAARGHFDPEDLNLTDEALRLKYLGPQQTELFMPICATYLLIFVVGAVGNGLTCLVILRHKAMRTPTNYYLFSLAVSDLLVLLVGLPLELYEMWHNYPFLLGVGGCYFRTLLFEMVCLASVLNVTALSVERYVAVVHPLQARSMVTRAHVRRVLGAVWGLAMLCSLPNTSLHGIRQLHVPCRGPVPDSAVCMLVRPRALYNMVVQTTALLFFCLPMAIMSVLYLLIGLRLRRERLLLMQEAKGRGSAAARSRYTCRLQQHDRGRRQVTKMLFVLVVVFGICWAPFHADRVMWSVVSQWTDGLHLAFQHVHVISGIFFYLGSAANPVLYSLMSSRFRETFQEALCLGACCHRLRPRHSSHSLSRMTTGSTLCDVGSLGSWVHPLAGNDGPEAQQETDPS", "experiment": "β-lactamase assay in CHO-NFAT-bla cells stably expressing GHSR-R", "assay_type": "cell-based", "details": "triplicates, read-out: EC50 of NMU for GHSR-R", "procedure": "β-lactamase assays were carried out as described previously; Zlokarnik et al., 1998, Science 279:84-88. CH.3xNFAT-bla cells (Aurora Biosciences, San Diego, Calif., USA) stably expressing GHSR-R were maintained at 37° C./5% CO2 in DMEM+10% fetal bovine serum (GIBCO-BRL, Gaithersburg, Md., USA), 1 mM sodium pyruvate, 1 mM non-essential amino acid, 55 μM 2-mecaptoethanol, 250 μg/ml zeocin, 5.0 μg/ml puromycin. Cells were seeded at 7,000 cells/well in 96-well clear bottom black-walled plates two days before assay.\nThe day the assay was performed, growth media was removed from the cells and replaced with 0.05 mL/well of phenol red-free Opti-MEM (GIBCO-BRL, Gaithersburg, Md., USA). Neuromedin U was diluted in Opti-MEM using 5-fold serial dilutions, and added into assay plates in triplicates at 0.05 ml/well. The plates were incubated at 37° C./5% CO2 for 4 hours. […]\nFluorescence was measured at emission wave length of 460 nM and 535 nM using an excitation wave length of 405 nM in a Tecan SpectraFluor Plus fluorescence microplate reader (Tecan Austria, Saltzburg, Austria). The ratio of fluorescence between 460 nM and 535 nM was calculated and plotted using the software GraphPad Prism Version 3.0 (GraphPad Software, Inc., San Diego, Calif., USA)."}, "[3]": {"system": "other G-protein coupled receptors", "experiment": "Aequorin assay, cells transfected with other G-protein coupled receptors in the same vector", "assay_type": "cell-based", "details": "other GPCRs cloned into the same vector"}, "[4]": {"biological_target": "T2, human growth hormone secretagogue related receptor (GHSR-R) (human, UniProt Q9HB89 24-426)", "T2 construct": "also called human GHSR-R; FM-3", "T2 sequence": "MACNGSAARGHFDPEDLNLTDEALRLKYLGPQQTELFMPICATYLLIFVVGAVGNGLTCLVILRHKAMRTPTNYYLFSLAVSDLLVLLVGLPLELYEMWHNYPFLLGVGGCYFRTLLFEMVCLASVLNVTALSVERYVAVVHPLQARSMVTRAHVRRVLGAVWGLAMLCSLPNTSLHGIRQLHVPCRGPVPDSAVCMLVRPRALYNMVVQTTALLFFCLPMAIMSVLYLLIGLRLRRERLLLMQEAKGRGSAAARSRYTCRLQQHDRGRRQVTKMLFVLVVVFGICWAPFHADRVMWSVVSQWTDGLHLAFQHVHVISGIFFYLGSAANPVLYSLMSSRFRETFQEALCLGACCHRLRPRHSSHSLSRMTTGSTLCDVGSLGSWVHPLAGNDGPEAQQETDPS", "experiment": "radioligand competition against 0.1 nM 125I-labeled rat NMU on membranes of HEK-293/aeq17 cells stably expressing human GHSR-R, filtration", "procedure": "(§1) All procedures were conducted on ice. Cell pellets were homogenized in a tissue grinder with a PTFE pestle (25 strokes). Crude cell membranes were then isolated by centrifugation of the cell lysate at 13,000×g for 30 minutes. Membrane pellets were resuspended at a protein concentration of 2.8 mg/ml in 50 mM Tris-HCl, pH 7.4, 5 mM MgCl2.\n(§2) After incubation for 1 hour at room temperature, binding reactions were filtered through GC/C filters (Whatman; presoaked for 1 hour in 1% polyethylenimine) on a 48-well cell harvester (Brandel), washed 3×3 ml with ice-cold 50 mM Tris-HCl, pH 7.4 buffer with 10 mM MgCl2. Radioactivity on the filters was quantitated by gamma counting."}, "[5]": {"biological_target": "T2, human growth hormone secretagogue …", "experiment": "cell-based or functional assay"}, "[6]": {"biological_target": "T2, human growth hormone secretagogue …", "experiment": "radioligand competition on membranes of HEK293 cells stably expressing human GHSR-R (summary of Example 10)", "procedure": "as §1, §2"}},
  "note": "Ends that are not written are not given here.",
  "data": [
    {"molecule": "neuromedin U (NMU), species and length not stated (peptide)", "values": [
      {"measurement": "EC50, beta-lactamase reporter assay in CHO-NFAT-bla cells", "setting": "[1]", "result": 0.075, "unit": "nM"},
      {"measurement": "EC50, beta-lactamase reporter assay in HEK293CRE-bla cells", "setting": "[1]", "result": 3, "unit": "nM"}
    ]},
    {"molecule": "neuromedin U (YKVNEYQGPVAPSGGFFLFRPRN; ends and bridges not checked; UniProt P12760 144-166, looked up) [NMU, neuropeptide neuromedin U; rat peptide (Phoenix Pharmaceuticals) in the food intake study]", "values": [
      {"measurement": "suppression of food intake", "setting": "[2]", "result": 59, "unit": "%"},
      {"measurement": "EC50", "setting": "GHSR-R", "result": "~0.075", "unit": "nM"},
      {"measurement": "response to NMU in cells expressing other G-protein coupled receptors", "setting": "[3]", "result": "did not show any response"}
    ]},
    {"molecule": "porcine neuromedin U-8 (porcine NMU-8) (from UniProt P34964 158-165) (peptide)", "values": [
      {"measurement": "EC50, FLIPR intracellular Ca2+ assay, COS-7 cells transiently transfected with GHSR-R", "setting": "[1]", "result": 45, "unit": "nM"},
      {"measurement": "EC50, aequorin bioluminescence assay (Ca2+ mobilization), HEK293aeq/17 cells stably expressing GHSR-R", "setting": "[1]", "result": 2.1, "unit": "nM"}
    ]},
    {"molecule": "YKVNEYQGPVAPSGGFFLFRPRN-NH2 (peptide, UniProt P12760 144-166, looked up, mature; also called unlabeled rat neuromedin U-25; Neuromedin U-25 (rat))", "note": "[rat neuromedin U-23 (rat NMU-23)]", "values": [
      {"measurement": "IC50", "setting": "[4]", "result": 3.3, "unit": "nM"},
      {"measurement": "EC50, FLIPR intracellular Ca2+ assay, COS-7 cells transiently transfected with GHSR-R", "setting": "[5]", "result": 55, "unit": "nM"},
      {"measurement": "EC50, aequorin bioluminescence assay (Ca2+ mobilization), HEK293aeq/17 cells stably expressing GHSR-R", "setting": "[5]", "result": 14.1, "unit": "nM"},
      {"measurement": "IC50", "setting": "[6]", "result": 3, "unit": "nM"}
    ]}
  ]
}
